Test results: article PMC11417369, “DNA sequence and chromatin differentiate sequence-specific transcription factor binding in the human malaria parasite Plasmodium falciparum”

B1: GTGCAC_negctrl_site338 (dsDNA)
DNA 1: TTTTTTTTTTTTTTTTTTTTTTTGTCTTATTTTTTT
DNA 2: AAAAAAATAAGACAAAAAAAAAAAAAAAAAAAAAAA
B2: GTGCAC_negctrl_site221 (dsDNA)
DNA 1: ATATGTATAAGTATGTATATTTATTTATACTTATGT
DNA 2: ACATAAGTATAAATAAATATACATACTTATACATAT
B3: GTGCAC_negctrl_site74 (dsDNA)
DNA 1: AATTGGAAGAAAAAAAAGGAAGGAAAGTTATTACAT
DNA 2: ATGTAATAACTTTCCTTCCTTTTTTTTCTTCCAATT
B4: GTGCAC_negctrl_site405 (dsDNA)
DNA 1: TTTTTTATATTGATATTTATTAAATATGAAATGTTA
DNA 2: TAACATTTCATATTTAATAAATATCAATATAAAAAA
B5: GTGCAC_negctrl_site87 (dsDNA)
DNA 1: ATATATATAAAATATTATATTAAAAAAAATAAAATA
DNA 2: TATTTTATTTTTTTTAATATAATATTTTATATATAT
B6: GTGCAC_negctrl_site162 (dsDNA)
DNA 1: TTTCTTATAGATTTTAATCCTCTATCAAAAAAAGAA
DNA 2: TTCTTTTTTTGATAGAGGATTAAAATCTATAAGAAA
B7: GTGCAC_negctrl_site607 (dsDNA)
DNA 1: TTTTCATTTATGTATATATTTATTTTGATTTAATGT
DNA 2: ACATTAAATCAAAATAAATATATACATAAATGAAAA
B8: GTGCAC_negctrl_site152 (dsDNA)
DNA 1: ATTATTTAATTTTATTAAAAAAAAACAAATTAACAG
DNA 2: CTGTTAATTTGTTTTTTTTTAATAAAATTAAATAAT
B9: GTGCAC_negctrl_site480 (dsDNA)
DNA 1: TTATAATAAAAGGCTTTACAATTATTAAACAAATAA
DNA 2: TTATTTGTTTAATAATTGTAAAGCCTTTTATTATAA
B10: GTGCAC_negctrl_site630 (dsDNA)
DNA 1: TTCTTTTCTTTTTTCTTTTTTTTTTTCTTTTCTTTT
DNA 2: AAAAGAAAAGAAAAAAAAAAAGAAAAAAGAAAAGAA
B11: GTGCAC_negctrl_site466 (dsDNA)
DNA 1: AAAAAAATTAAAAATTAAAATTAAAAATAATATATA
DNA 2: TATATATTATTTTTAATTTTAATTTTTAATTTTTTT
B12: GTGCAC_negctrl_site487 (dsDNA)
DNA 1: ATCATGGAAAAAACAAATGGGCTACATTACCTTTTG
DNA 2: CAAAAGGTAATGTAGCCCATTTGTTTTTTCCATGAT
B13: GTGCAC_negctrl_site289 (dsDNA)
DNA 1: TTTTTAGAAAAGGTTATAAAAAATTAATTGAAAAAA
DNA 2: TTTTTTCAATTAATTTTTTATAACCTTTTCTAAAAA
B14: GTGCAC_negctrl_site459 (dsDNA)
DNA 1: TTTTTTAGATTACATAAATATAAATATAAATATATA
DNA 2: TATATATTTATATTTATATTTATGTAATCTAAAAAA
B15: GTGCAC_negctrl_site303 (dsDNA)
DNA 1: TCTTTTTTTTTTTTTTTTTCTTCTTCTCAATATAAA
DNA 2: TTTATATTGAGAAGAAGAAAAAAAAAAAAAAAAAGA
B16: GTGCAC_negctrl_site144 (dsDNA)
DNA 1: TTTTTTCTTTTTTTTTTTAATTATAAACATGATATT
DNA 2: AATATCATGTTTATAATTAAAAAAAAAAAGAAAAAA
B17: GTGCAC_negctrl_site147 (dsDNA)
DNA 1: AGTAAAAAAAAAAAAAAAAAAAAAAAAAAAAAAAAA
DNA 2: TTTTTTTTTTTTTTTTTTTTTTTTTTTTTTTTTACT
B18: GTGCAC_negctrl_site347 (dsDNA)
DNA 1: TTTTTTTTTATATAAAAAAAAATTTTTATTATTTTA
DNA 2: TAAAATAATAAAAATTTTTTTTTATATAAAAAAAAA
B19: GTGCAC_negctrl_site240 (dsDNA)
DNA 1: TTTTTTTTTTTTTTTTTTTGATTCTTATAAAAATTT
DNA 2: AAATTTTTATAAGAATCAAAAAAAAAAAAAAAAAAA
B20: GTGCAC_negctrl_site124 (dsDNA)
DNA 1: TTTTAAAATTTTTTTTTTTTTTTTTTATGAACAAGT
DNA 2: ACTTGTTCATAAAAAAAAAAAAAAAAAATTTTAAAA
B21: GTGCAC_negctrl_site145 (dsDNA)
DNA 1: TTTGTAAAATAATATCTTTCATGTCCTTACTAATTA
DNA 2: TAATTAGTAAGGACATGAAAGATATTATTTTACAAA
B22: GTGCAC_negctrl_site302 (dsDNA)
DNA 1: TAAAAAAATAAAAAAAAAAAATTATAAAATTATATA
DNA 2: TATATAATTTTATAATTTTTTTTTTTTATTTTTTTA
B23: GTGCAC_negctrl_site697 (dsDNA)
DNA 1: AAAACTTTTAAAATTTTGTATTCATTCCTTCAACAA
DNA 2: TTGTTGAAGGAATGAATACAAAATTTTAAAAGTTTT
B24: GTGCAC_negctrl_site725 (dsDNA)
DNA 1: TTTTTAATCAGAAATATTTATTAAAGAATTTTATAG
DNA 2: CTATAAAATTCTTTAATAAATATTTCTGATTAAAAA
B25: GTGCAC_negctrl_site2 (dsDNA)
DNA 1: ATATGAACAAAATAAATCTCTTCAAAAATAATGTTC
DNA 2: GAACATTATTTTTGAAGAGATTTATTTTGTTCATAT
B26: GTGCAC_negctrl_site639 (dsDNA)
DNA 1: AAATAATTTATAAATAAATACATTGTTACTTTTTCT
DNA 2: AGAAAAAGTAACAATGTATTTATTTATAAATTATTT
B27: GTGCAC_negctrl_site29 (dsDNA)
DNA 1: TAAGTCAAAACTTTTTTTTCTAAATTTCCATAATTA
DNA 2: TAATTATGGAAATTTAGAAAAAAAAGTTTTGACTTA
B28: GTGCAC_negctrl_site318 (dsDNA)
DNA 1: ATTTAAAAAAAAAAAAATAAATAACTTGAAAAACAA
DNA 2: TTGTTTTTCAAGTTATTTATTTTTTTTTTTTTAAAT
B29: GTGCAC_negctrl_site52 (dsDNA)
DNA 1: TTTTTACTATAATTAAAATTAACAAAAGAAAATGAT
DNA 2: ATCATTTTCTTTTGTTAATTTTAATTATAGTAAAAA
B30: GTGCAC_negctrl_site474 (dsDNA)
DNA 1: ATAAAATATTAATTTTAAATTAATCAATATATATAA
DNA 2: TTATATATATTGATTAATTTAAAATTAATATTTTAT
B31: GTGCAC_negctrl_site722 (dsDNA)
DNA 1: ATAATACAAAAAAAAAAAAAAAATAAAATAATAAAA
DNA 2: TTTTATTATTTTATTTTTTTTTTTTTTTTGTATTAT
B32: GTGCAC_negctrl_site143 (dsDNA)
DNA 1: TTTTTTTTTTTTTTTTTTTTTTTTTTGTTCAGGCCT
DNA 2: AGGCCTGAACAAAAAAAAAAAAAAAAAAAAAAAAAA

Target: T1, HDP1 homeodomain-like (Plasmodium falciparum, UniProt Q8IKH4 2990-3078)
T1 sequence: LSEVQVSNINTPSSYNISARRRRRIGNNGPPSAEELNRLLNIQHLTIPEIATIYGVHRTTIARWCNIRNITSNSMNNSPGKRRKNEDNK
Assay: gcPBM; about 25 ug protein; PBS, 1% milk, 0.2 mg/ml BSA, salmon testes DNA, 0.03% Triton X-100
Conditions: tags: N-terminal GST (pGEX-4T-1), kept; chain copies: 2; label: surface-attached array probe

Binder | binding signal
B1 | 5.91 ln median PBM intensity, better of two orientations
B2 | 6.16 ln median PBM intensity, better of two orientations
B3 | 6.06 ln median PBM intensity, better of two orientations
B4 | 6.13 ln median PBM intensity, better of two orientations
B5 | 6.1 ln median PBM intensity, better of two orientations
B6 | 6.12 ln median PBM intensity, better of two orientations
B7 | 6.11 ln median PBM intensity, better of two orientations
B8 | 6.14 ln median PBM intensity, better of two orientations
B9 | 6.03 ln median PBM intensity, better of two orientations
B10 | 6.08 ln median PBM intensity, better of two orientations
B11 | 5.91 ln median PBM intensity, better of two orientations
B12 | 5.94 ln median PBM intensity, better of two orientations
B13 | 6.15 ln median PBM intensity, better of two orientations
B14 | 6.12 ln median PBM intensity, better of two orientations
B15 | 6.15 ln median PBM intensity, better of two orientations
B16 | 6.07 ln median PBM intensity, better of two orientations

Binder | binding signal
B17 | 6.13 ln median PBM intensity, better of two orientations
B18 | 6.12 ln median PBM intensity, better of two orientations
B19 | 6.02 ln median PBM intensity, better of two orientations
B20 | 5.92 ln median PBM intensity, better of two orientations
B21 | 5.95 ln median PBM intensity, better of two orientations
B22 | 5.98 ln median PBM intensity, better of two orientations
B23 | 6.07 ln median PBM intensity, better of two orientations
B24 | 5.95 ln median PBM intensity, better of two orientations
B25 | 5.98 ln median PBM intensity, better of two orientations
B26 | 6.13 ln median PBM intensity, better of two orientations
B27 | 5.89 ln median PBM intensity, better of two orientations
B28 | 6.08 ln median PBM intensity, better of two orientations
B29 | 6.13 ln median PBM intensity, better of two orientations
B30 | 6.16 ln median PBM intensity, better of two orientations
B31 | 6.04 ln median PBM intensity, better of two orientations
B32 | 5.99 ln median PBM intensity, better of two orientations
